Results reported in the supplement of paper PMC10567573.

B1: DYRK1B (parent)
chain: ARKYFERLPGGGWTLRRTKELRKD
B2: TRAF3IP2 (parent)
chain: PGQPLPGASVRGLHPVQKVILNYP
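Further: lentivirally expressed fusions sorted by FACS into six bins by GFP to DsRed ratio, PSI derived from sequencing read proportions per bin multiplied by bin number.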

Variants of: B1
Test: protein stability index of a GFP-peptide fusion (GPS, HEK-293T) (PSI 1-6); higher = more stable
Conditions: c terminus: a fixed tail appended
Variant R22F has a protein stability index of 3.59. With R22P the protein stability index was 3.48. With R22N the protein stability index was 3.97. R22Q showed a protein stability index of 3.9. Variant R22E has a protein stability index of 4.04. With R22K the protein stability index was 3.36. In the case of T14V, the protein stability index is reported as 2.91. In the case of T14Q, the protein stability index is reported as 2.9. Work on T14Y yielded a protein stability index of 3.01. In the case of T14P, the protein stability index is reported as 2.52. T14S showed a protein stability index of 3.34. In the case of T14F, the protein stability index is reported as 2.36. In the case of T14W, the protein stability index is reported as 2.72. With T14R the protein stability index was 2.33. In the case of T14K, the protein stability index is reported as 3.34. F5A gave a protein stability index of 3.86. With F5K the protein stability index was 4.25. Work on F5G yielded a protein stability index of 3.63. In the case of F5L, the protein stability index is reported as 3.83. For F5I, the protein stability index was 2.91. Work on F5H yielded a protein stability index of 3.82. Variant F5S has a protein stability index of 4.35. In the case of F5E, the protein stability index is reported as 4.26. For F5V, the protein stability index was 3.98. F5M showed a protein stability index of 2.98. Variant F5D has a protein stability index of 3.84. F5Q gave a protein stability index of 3.71. Work on F5N yielded a protein stability index of 4.02. Work on F5Y yielded a protein stability index of 4.08. F5R showed a protein stability index of 3.58. L8D showed a protein stability index of 4.19. In the case of L8R, the protein stability index is reported as 3.25. For L8V, the protein stability index was 3.84. L8W gave a protein stability index of 2.13. For L8F, the protein stability index was 2.57. With L8I the protein stability index was 3.5. L8C showed a protein stability index of 3.18. Variant L8N has a protein stability index of 3.4. Variant L8S has a protein stability index of 5.45. L8P showed a protein stability index of 3.85. For L8T, the protein stability index was 4.18. For L8Q, the protein stability index was 3.38. L8E showed a protein stability index of 3.71. L8H gave a protein stability index of 3.32. With L8Y the protein stability index was 4.07. With L8M the protein stability index was 3.47. Work on K19I yielded a protein stability index of 2.87. K19H showed a protein stability index of 3.08. Work on K19T yielded a protein stability index of 3.41. Variant K19S has a protein stability index of 3.82. In the case of K19D, the protein stability index is reported as 4.88. Variant K19M has a protein stability index of 2.73. For K19P, the protein stability index was 3.97. K19Y showed a protein stability index of 3.25. For K19W, the protein stability index was 2.35. K19F gave a protein stability index of 3.01. For R16I, the protein stability index was 2.99. R16K showed a protein stability index of 3.48. For R16P, the protein stability index was 3.73. R16H showed a protein stability index of 2.44. R16S gave a protein stability index of 3.17. With R16Y the protein stability index was 1.45. With R16L the protein stability index was 2.79. R16T showed a protein stability index of 3.5. With R16G the protein stability index was 3.66. In the case of R16F, the protein stability index is reported as 1.69. For R16M, the protein stability index was 1.97. Variant R16V has a protein stability index of 4.2. With L21Q the protein stability index was 3.88. With L21I the protein stability index was 3.44. For L21C, the protein stability index was 4.41. With L21H the protein stability index was 3.95. Variant L21K has a protein stability index of 3.73. With L21P the protein stability index was 3.26. With L21W the protein stability index was 3.76. With L21G the protein stability index was 3.95. Variant L21S has a protein stability index of 4.45. Work on L21E yielded a protein stability index of 4.62. Work on L21V yielded a protein stability index of 3.7. In the case of E6F, the protein stability index is reported as 3.37. E6Q showed a protein stability index of 2.55. Work on E6K yielded a protein stability index of 2.78. With E6T the protein stability index was 3.78. Variant E6Y has a protein stability index of 3.62. Variant E6W has a protein stability index of 2.67. For E6R, the protein stability index was 4.86. For E6L, the protein stability index was 2.64. Work on E6V yielded a protein stability index of 3.35. With E6A the protein stability index was 4.08. E6H gave a protein stability index of 3.34. E6S showed a protein stability index of 3.21. E6N gave a protein stability index of 3.07. In the case of E6C, the protein stability index is reported as 3.85. With E6D the protein stability index was 3.69. Variant E6P has a protein stability index of 3.39. Work on E6M yielded a protein stability index of 2.36. Variant E6I has a protein stability index of 3.38. Variant K3Y has a protein stability index of 2.58. K3E showed a protein stability index of 4.13. In the case of K3I, the protein stability index is reported as 1.92. K3N showed a protein stability index of 2.5. Variant K3M has a protein stability index of 3.12. K3R gave a protein stability index of 3.9. K3Q showed a protein stability index of 3.67. K3T showed a protein stability index of 3.55. K3A gave a protein stability index of 3.79. With K3G the protein stability index was 3.51. For K3H, the protein stability index was 3.56. K3V showed a protein stability index of 2.69. Variant K3P has a protein stability index of 2.96. K3C gave a protein stability index of 3.24. With K3L the protein stability index was 2.48. Variant K3W has a protein stability index of 2.6. K3S gave a protein stability index of 3.55. For K3F, the protein stability index was 1.98. With T18R the protein stability index was 3.72. For T18Y, the protein stability index was 2.26. For T18L, the protein stability index was 1.73. Work on T18D yielded a protein stability index of 4.05. T18M gave a protein stability index of 3.88. In the case of T18V, the protein stability index is reported as 3.69. In the case of T18I, the protein stability index is reported as 3.93. T18P gave a protein stability index of 3.57. Work on Y4V yielded a protein stability index of 3.44. Y4M gave a protein stability index of 3.21. With Y4R the protein stability index was 4.29. With Y4W the protein stability index was 2.2. With Y4F the protein stability index was 2.91. Work on Y4H yielded a protein stability index of 4.07. Y4D showed a protein stability index of 4.48. With Y4Q the protein stability index was 3.34. Work on Y4N yielded a protein stability index of 4.17. Y4G gave a protein stability index of 4.37. In the case of Y4P, the protein stability index is reported as 4.82. Variant Y4S has a protein stability index of 3.37. With Y4C the protein stability index was 3.29. With Y4L the protein stability index was 3.14. Work on Y4I yielded a protein stability index of 2.87. Y4T showed a protein stability index of 3.14. Y4E gave a protein stability index of 3.76. In the case of Y4A, the protein stability index is reported as 2.7. R7H gave a protein stability index of 3.08. For R7F, the protein stability index was 2.41. For R7T, the protein stability index was 2.99. With R7E the protein stability index was 4.31. R7D showed a protein stability index of 3.21. R7M showed a protein stability index of 3.67. In the case of R7K, the protein stability index is reported as 3.52. R7A showed a protein stability index of 3.3. Work on R7L yielded a protein stability index of 2.77. Variant R7C has a protein stability index of 2.88. R7I showed a protein stability index of 2.64. With R7S the protein stability index was 3.23. Work on R7W yielded a protein stability index of 2.81. In the case of R7Q, the protein stability index is reported as 4.13. With R7P the protein stability index was 3.94. R7N showed a protein stability index of 2.83. In the case of R7Y, the protein stability index is reported as 3.25. With R7G the protein stability index was 2.84. Work on R7V yielded a protein stability index of 3.33.

Variants of: B2
Test: as above
Conditions: c terminus: a fixed tail appended
For P6S, the protein stability index was 3.14. Work on H14I yielded a protein stability index of 3.04. G12M showed a protein stability index of 2.85. Q17N gave a protein stability index of 2.8. For V19A, the protein stability index was 3. K18N showed a protein stability index of 2.65. R11W showed a protein stability index of 2.08.
